PMC3082911 (Nucleic Acids Research, 2010)

Legend:
[1] = target: myc-tagged PSF (full-length) (UniProt Q8VIJ6); test: co-IP
[2] = target: T1, myc-tagged PSF (full-length) (UniProt Q8VIJ6 1-699); test: co-IP
T1 sequence: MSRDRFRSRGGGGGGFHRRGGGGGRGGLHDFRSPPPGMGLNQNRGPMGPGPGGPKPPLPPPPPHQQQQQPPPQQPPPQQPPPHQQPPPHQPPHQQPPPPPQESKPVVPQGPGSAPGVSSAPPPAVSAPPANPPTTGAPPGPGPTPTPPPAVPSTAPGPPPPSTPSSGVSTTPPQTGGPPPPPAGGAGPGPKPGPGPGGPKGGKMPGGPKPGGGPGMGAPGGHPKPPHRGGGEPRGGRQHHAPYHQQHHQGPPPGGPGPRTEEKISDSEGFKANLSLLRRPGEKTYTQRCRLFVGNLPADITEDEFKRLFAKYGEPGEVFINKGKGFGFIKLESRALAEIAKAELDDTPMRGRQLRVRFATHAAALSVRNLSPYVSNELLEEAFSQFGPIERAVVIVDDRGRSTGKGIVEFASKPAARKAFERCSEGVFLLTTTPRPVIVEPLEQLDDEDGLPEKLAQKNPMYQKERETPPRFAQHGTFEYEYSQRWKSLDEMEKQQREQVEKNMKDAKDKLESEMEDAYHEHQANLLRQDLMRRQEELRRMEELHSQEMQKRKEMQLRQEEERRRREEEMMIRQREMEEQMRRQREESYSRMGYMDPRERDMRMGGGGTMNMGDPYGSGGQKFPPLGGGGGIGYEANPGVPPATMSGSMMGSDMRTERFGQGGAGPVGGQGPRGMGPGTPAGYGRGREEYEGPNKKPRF

Molecule “myc-tagged Fox-3-S (from UniProt Q8BIF2-5 1-327) (natural protein)” has a fold more efficiently pulled down by PSF than Fox-1 [1] of 7 fold and a fold more efficiently pulled down by PSF than Fox-2 [1] of 2.7 fold.

B1: myc–Fox-3-L (natural protein)
chain: MAQPYPPAQYPPPPQNGIPAEYAPPPPHPTQDYSGQTPVPPEHGMTLYTPAQTHPEQPGTEASTQPIAGTQTVPQADEAAQTDNQQLHPSDPTEKQQPKRLHVSNIPFRFRDPDLRQMFGQFGKILDVEIIFNERGSKGFGFVTFETSSDADRAREKLNGTIVEGRKIEVNNATARVMTNKKPGNPYANGWKLNPVVGTVYGPEFYAVTSFPYPTTGTAVAYRGAHLRGRGRAVYNTFRAAPPPPPIPTYGAALEQTLVKMPVPWAGLAPCPLPPQQTPEPAYPTSPAFPPLSCPFASRVVYQDGFYGAEIYGGYAAYRYAQPAAATAAAYSDSYGRVYAAADPYHHTIGPTATYSIGTMASLCRGGYSRFTPY
For B1, the “fold more efficiently pulled down by PSF than Fox-1” value [2] was 7 fold and the “fold more efficiently pulled down by PSF than Fox-2” value [2] was 2.7 fold.
